The RNAGym collection of RNA variant scans (doi:10.1073/pnas.2313332121)
This sample holds only a part of the variants without activity.

B1: TPR 5TU (parent)
chain: GGAUCUUCUCGAUCUAACAAAAAAGACAAAUCUGCCACAAAGCUUGAGAGCAUCUUCGGAUGCAGAGGCGGCAGCCUUCGGUGGCGCGAUAGCGCCAACGUUCUCAACUAUGACACGCAAAACGCGUGCUCCGUUGAAUGGAGUUUAUCAUG

Variants of: B1
Test: polymerase ribozyme fitness, log enrichment relative to wild type (log ratio); higher = more active; in vitro selection for triplet polymerase activity
How it was run: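 After PCR construction and transcription, each subunit's mutant library from a heterodimeric triplet polymerase ribozyme was annealed with a biotinylated primer, the partner subunit and triplets. Incubation was frozen, at −7 °C, and extended constructs were gel-excised, bound to streptavidin beads and amplified by RT-PCR, in one selection round done in triplicate. Fitness is the logarithm of a genotype's enrichment divided by that of the wild type, from inverse-variance-weighted replicate averages of Illumina-sequenced inputs and outputs. The base of the logarithm is 2, and genotypes needed ≥10 input reads and ≥1 read per output.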

Variant | polymerase ribozyme fitness (log ratio)
G11C U31A A40U | -0.204
A12G A52C G59A | -1.78
G11U A26U U82A C93A | ≤ -4.2
G11U C18G A21C U31C C57U A91G A113C G143U | ≤ -4.2
A12U C14G G25C C85G G94A U104C A106U C116G U139C | ≤ -4.2
U13A A20G C63G A91U G136C | ≤ -4.2
G11U A40U G84A C132A G143C | ≤ -4.2
G11C C36G U56A C57U G59A C96G | ≤ -4.2
G11A C123U A142U | -1.6
U13A A41C C43G A60C A138G A150G | ≤ -4.2
A12U A19C U82C C129G | -3.41
A12U A24G A49C C57U A73G G86U | ≤ -4.2
A12C C35U A39G G59A C85A C87U | ≤ -4.2
G11C U56A C75U U145A | -1.61
C10U U31A C57A U61A U77C C95A C99U C116U | ≤ -4.2
U13A C72U U82C | -1.38
C10U G83A | -3.44
U13A A37U C96U G126U | -2.85
C10U G84A G126U | -4.02
A12U A22G C35U G58A A91C A98G C116G | -4.07
C10U U90G C116G | -3.83
C10U A30U U33G C51A A64C A91G C118U U145C | ≤ -4.2
A12G U44A A52G C85A C118U | ≤ -4.2
A12C U145C | 0.192

Variant | polymerase ribozyme fitness (log ratio)
U13A C93U | -0.77
C10U U13C A52U C96A | -3.64
A12G C57A G58A G81A C85U A91G A119G | -3.03
G11A C85U U130G | ≤ -4.2
A12G G84C | -1.21
A12G G143U | -2.62
A12U A37C U45A U55A C85U G92A | ≤ -4.2
G11C A22C G50U U56A C96A G141A | -3.94
A12U A16G A40C U55A G81A C118G C129A | ≤ -4.2
A12U G58A U144C U146A | -3.88
G11U G74A C85A U90C G141A U148C | ≤ -4.2
A12C G59C C87A A107G A115U A150U | ≤ -4.2
G11C C38U G65U A122U | ≤ -4.2
A12U U56A C93U | -1.4
C10U A21U C54A U55A C95U U102G A106C G141C | ≤ -4.2
G11U U31C U53A A66G C85A C87A | ≤ -4.2
A12U C14A C114G A119G | -3.37
U13A C103A | -2.51
U13A A47U G86U C132U G140A | -3.17
G11U A29C C35U U45A A66G A91U | -3.98
C10U A23G U82G C95A | ≤ -4.2
G11U A97G C103A U146A | -4.09
G11A G83A G94U G128U U145G | ≤ -4.2
G11C A26G C93A A120U G126C | -3.54

Variant | polymerase ribozyme fitness (log ratio)
A12C U56A G59C C96A U101C | -0.609
C10U U82A C87G A89U A142U | ≤ -4.2
C10U A40C G42C A49G G58U G83C G92A A107C G141C C149G | ≤ -4.2
U13A C18U C51U G86A | -2.27
G11C A30U U82C | ≤ -4.2
A12G A16G A23U C38U C87U G141C G152A | ≤ -4.2
C10U A52G G67U C69A | ≤ -4.2
C10U G25C G46C G88U C95U A97U A142C | ≤ -4.2
A12U A17C A24G C79U C118U | ≤ -4.2
G11A A16U A21U A60U C63A C85A G126U | ≤ -4.2
A12G A40G A41C G65A C85U A107G C123G G152A | ≤ -4.2
A12G C72G G74U G83U U146G | ≤ -4.2
A12C A52G C93U U101C C105U | -2.54
A12U C57U | -0.208
G11C C93A | -3.87
G11U C38G G46A | -2.87
G11C C38G C87A C95U G100U C105U C118A C129G G133U | ≤ -4.2
A12U C27G A41G C87U A91G G140U | ≤ -4.2
U13A U61A | -1.8
U13A C85U | -1.16
A12G U144A | 1.44
C10U G42A A49U A64G G71A U139C | ≤ -4.2
A12U C36U U61G G67A U82G A106G A138U | -4.08
A12G A22C U101G U127C | -1.93

Variant | polymerase ribozyme fitness (log ratio)
U13A G58U C96A A120U U145C | -1.29
A12G C38U G86A C87U A121C G136A | ≤ -4.2
A12G A20G A26U A41C C54U U77C U102C U146G | ≤ -4.2
C10U A37U G50A A73U A122G | ≤ -4.2
G11U A30U C95U C99U | ≤ -4.2
G11C A47U G68C C85A C95A A106G U134C A150G | ≤ -4.2
G11A A17C A20C A22U G46U C85U | -3.03
A12C A40C C87A C93U G94C A110G A142U | ≤ -4.2
G11U A28C A49C C51A U53A C57U C95A G140A | ≤ -4.2
A12U G48U C51A G58C U61G C114U | ≤ -4.2
A12U C85U C99G | -1.04
A12G A16G U31A C125A U145C | -0.993
U13A A37C C57A G126U | -1.66
A12U C14G A20G A73G U77A G86U C96U G117U | ≤ -4.2
G11A | -0.693
G11C | -1.36
G11U | -0.242
C10U C93U G117A A137C | ≤ -4.2
C10U A52C U55A A97G A98G C129U | ≤ -4.2
G11A A29G C38G A147C | ≤ -4.2
A12C C51U C85A A150U | -0.931
A12U U53A | -1.75
A12U U55A | -0.315
A12C A97G U102G | -3.89

Variant | polymerase ribozyme fitness (log ratio)
A12C C43A C57A G84A U139G A147U | ≤ -4.2
C10U U13G C14A A28C C54U G92C A113U A122G C129U | ≤ -4.2
C10U A23G C36A G58U A113U | ≤ -4.2
A12C A29G C93U U104A U134A | ≤ -4.2
A12U U55C A137C | -4.12
G11U A28G A41U U61G G68A C96U A97C C108U G143U C149A | ≤ -4.2
A12G G59A A66C C79A C108U C116A | ≤ -4.2
A12G U56A | -0.197
A12U C76G C99U C132G | ≤ -4.2
A12G C54A U55G G58C G92A A97U C125G G128U U135C A138G U139A U145G | ≤ -4.2
C10U C32A C38G C43A G83A A91U C95G A97U U144G | ≤ -4.2
A12U C105G C118A | -2.62
A12G C14U C79G C132A A142U | ≤ -4.2
G11A U55G U56A U102A | -3.42
G11A C85A A121U C149U | -2.75
A12C A119G | -0.0231
A12U C38U C129G | ≤ -4.2
A12G C18G A21U G68C G83A A97U C125U G140U G143U | ≤ -4.2
C10U C18U A39U A49U U61A G68U U82G A110U G133A | ≤ -4.2
G11C A122G | -2.55
G11U G83A C96U | -0.589
G11U C57U G58A U104G C105U | -3.72
A12U G126A | -0.204
C10U C38A G70A C93U A97U C116G U148G | ≤ -4.2

Variant | polymerase ribozyme fitness (log ratio)
A12U A22G U45A A49U A115G | ≤ -4.2
G11C A16U G42U A113C | ≤ -4.2
U13A A24U C96G | -1.33
A12U C93G | -3.28
A12C A22G C54A G70U G100A C116G G117A U135G | ≤ -4.2
G11A A137C C149U | ≤ -4.2
G11A G50A C63U C93U | -1.77
U13A A49C G50C C51U G62C C76A G81A C85U G112A G124U | ≤ -4.2
G11U G94C A106G | -1.62
C10U G58A U109G | -3.43
A12U G25U A52C U56A G67A A91G C103G | ≤ -4.2
A12C A22C U82A G126A | 0.264
G11U C14G U127G | ≤ -4.2
A12U A41C U55G A66G G88U G94U U134A G136C U151A | ≤ -4.2
G11A C96U C116U | -1.68
G11C G46U U55A C87U C93U U127G A138C U145A | ≤ -4.2
A12C A21C C35A G58U U135G | -4.1
A12G C54U C57A C75U | -0.0208
A12C G58A A66C G88U A110U | ≤ -4.2
U13A A24U G34A G94C G126C | -3.18
U13A A21U U55C G62C U82A G100C C105G G112U C131U | ≤ -4.2
G11U A21U A37G A52C C85U | -4.18
A12U A21C A52C C85U | -1.19
G11A U44A G48A C57U C96U | ≤ -4.2

Variant | polymerase ribozyme fitness (log ratio)
C10U G59C C85A C116G A138C | ≤ -4.2
C10U G143U | -3.61
G11U A16G C36A A49C C95G C118U G133U | ≤ -4.2
G11C C32G C54U C57U C79G C87G A110G | ≤ -4.2
A12G A19C A29U C129G | ≤ -4.2
G11C G59A A60C | -3.14
G11A A41C G83C C123G | -2.58
A12U A49U A52C G67A C72A C85A G86C A119U | ≤ -4.2
G11U G70U G83C A122G G143C | ≤ -4.2
G11C A19C | -1.41
C10U A21G G48A G83C G94U U144A | ≤ -4.2
G11U A22G G59U G65C A98U U127C C129G | ≤ -4.2
A12U A17U C18U G46U C51U A52U C75A G84C G100U C105U C118G A120U U134A A137G | ≤ -4.2
A12U G58C C95A | -1.44
G11U G84A U144G | 0.53
G11U A29U U55G G92U C93G C95A G133A U144A A150C | ≤ -4.2
A12G C35A G74A U101A A147U | ≤ -4.2
G11C A37C U82G C85G C105U C116G | ≤ -4.2
C10U A89U C95U | -4.15
A12G A17C G50C C63G C96U | -0.474
A12C C57A | -0.21
A12U C14A G58C C85A | -3.13
G11U C27G C35A C95U C131G G152U | -3.68
